Experimental findings from patent US20140369964A1 (GLYTECH, published 2014) are described below.

This assay concerns the target T1, IFN-α/β receptor 2 (UniProt P48551 27-243, limits assumed).
T1 sequence (looked up): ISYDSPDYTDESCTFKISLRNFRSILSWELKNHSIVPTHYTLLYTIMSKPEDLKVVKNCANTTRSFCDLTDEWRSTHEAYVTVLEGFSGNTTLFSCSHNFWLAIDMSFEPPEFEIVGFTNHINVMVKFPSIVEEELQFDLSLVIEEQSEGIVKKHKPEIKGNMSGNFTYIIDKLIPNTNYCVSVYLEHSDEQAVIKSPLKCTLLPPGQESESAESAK
Briefly: SPR (ProteOn XPR36), receptor amine-coupled to GLM chip, IFN-β as analyte at 0.31-25 nM. As for the experimental part: The binding affinity of the non-heated or heat-treated chemically synthesized IFN-β against IFN-α/β receptor 2 was measured with ProteOn XPR36 (Bio-rad) employing SPR (Surface Plasmon Resonance technology).
Specifically, 10 μg/mL of IFN-α/β receptor 2 (10 mM acetic acid buffer, pH 4.5) was fixed to a GLM chip (Bio-rad) according to instructions by employing an amine coupling kit (Bio-rad) and flowing 0.005% Tween 20/PBS at a flow rate of 30 μL/min. The non-heated disialo sugar chain attached polypeptide (10) prepared in Example 3, or the heat-treated disialo sugar chain attached polypeptide obtained by subjecting the disialo sugar chain attached polypeptide heat-treated in the above 9-1. to the de-Acm step, the benzyl group deprotection step, and the folding step described in the above 3-4.-3-6. were adjusted to 0.31-25 nM with 0.1% BSA and 2 mM EDTA/PBS, and added to the chip at a flow rate 50 of μL/min. The analysis with glycosylated polypeptide (10) was carried out at each of five concentrations of 0.31 nM, 0.93 nM, 2.8 nM, 8.3 nM, and 25 nM. The binding constant (ka), the dissociation constant (kd), and the binding dissociation constant (Kd) were analyzed with ProteOn Manager software. The results thereof are shown in FIG. 38, FIG. 39, and Table 1.

B1: non-heated disialo sugar chain attached polypeptide (10) (ligand)
chain: MSYNLLGFLQRSSNFQCQKLLWQLNGRLEYCLKDRMNFDIPEEIKQLQQFQKEDAALTIYEMLQNIFAIFRQDSSSTGWNETIVENLLANVYHQINHLKTVLEEKLEKEDFTRGKLMSSLHLKRYYGRILHYLKAKEYSHCAWTIVRVEILRNFYFINRLTGYLRN
modifications: disialo sugar chain on Asn at position 80; folded, with a mass loss of 2 Da after folding (disulfide bond, Cys 31-Cys 141 in interferon β)
notes: also called glycosylated polypeptide (10); disialo IFN-β
In the case of B1, the Kd (as a rule, the equilibrium constant for the complex coming apart) came out at 0.49 nM; the koff – broadly, the rate constant with which the complex falls apart – was 0.0027 s⁻¹; the kon (commonly a measure of how fast the partners come together) is 5.5e+06 M⁻¹ s⁻¹.

B2: heat-treated disialo sugar chain attached polypeptide (ligand)
chain: MSYNLLGFLQRSSNFQCQKLLWQLNGRLEYCLKDRMNFDIPEEIKQLQQFQKEDAALTIYEMLQNIFAIFRQDSSSTGWNETIVENLLANVYHQINHLKTVLEEKLEKEDFTRGKLMSSLHLKRYYGRILHYLKAKEYSHCAWTIVRVEILRNFYFINRLTGYLRN
modifications: disialo sugar chain on Asn at position 80; folded as in step 3-6
notes: also called heat-treated chemically synthesized IFN-β
As to B2, the Kd was found to be 0.53 nM, the koff is 0.0023 s⁻¹ and the on-rate constant (kon) stood at 4.3e+06 M⁻¹ s⁻¹.
